Assay results published in EP3411068A2 (dated 2018).

Tests used:
[1] = biological target: T1, human VEGFR2 expressed on KDR-PAE cells (human, UniProt P35968 20-1356); test: flow cytometry on KDR-PAE cells
T1 construct: whole, on cells; also called PAE-KDR; KDR-PAE (hVEGFR2)

human VEGFR2-Fc [2] = biological target: T2, human VEGFR2-Fc (human, UniProt P35968 20-764); test: blocking ELISA, hVEGFR2-Fc binding to coated hVEGF
T2 construct: also called hVEGFR2; recombinant human VEGFR2

mouse VEGFR2-Fc [3] = biological target: T3, mouse VEGFR2-Fc (mouse, UniProt P35918 20-762); test: blocking ELISA, mVEGFR2-Fc binding to coated mVEGF
T3 construct: also called mVEGFR2; recombinant mouse VEGFR2
T3 sequence (P35918 20-762 limits assumed): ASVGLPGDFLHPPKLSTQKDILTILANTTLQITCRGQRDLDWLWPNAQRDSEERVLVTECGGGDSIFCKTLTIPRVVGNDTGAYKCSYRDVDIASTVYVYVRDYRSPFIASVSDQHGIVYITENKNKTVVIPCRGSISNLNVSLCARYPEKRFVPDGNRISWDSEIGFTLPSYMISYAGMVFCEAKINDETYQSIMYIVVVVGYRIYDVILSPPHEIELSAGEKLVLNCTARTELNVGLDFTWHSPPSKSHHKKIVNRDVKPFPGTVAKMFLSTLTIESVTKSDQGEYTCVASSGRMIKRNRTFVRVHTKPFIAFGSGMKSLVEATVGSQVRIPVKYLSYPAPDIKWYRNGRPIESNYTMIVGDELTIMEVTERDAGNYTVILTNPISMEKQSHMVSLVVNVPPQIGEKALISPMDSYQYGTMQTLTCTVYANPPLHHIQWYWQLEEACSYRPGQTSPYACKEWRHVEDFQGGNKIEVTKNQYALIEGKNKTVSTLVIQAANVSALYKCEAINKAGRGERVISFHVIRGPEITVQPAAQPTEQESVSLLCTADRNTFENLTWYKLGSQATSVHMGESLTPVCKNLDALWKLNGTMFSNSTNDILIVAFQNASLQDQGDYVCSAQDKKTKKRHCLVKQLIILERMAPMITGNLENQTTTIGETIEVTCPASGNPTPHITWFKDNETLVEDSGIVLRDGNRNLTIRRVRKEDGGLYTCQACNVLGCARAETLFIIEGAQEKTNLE

human VEGFR2-Fc [4] = biological target: T2, human VEGFR2-Fc; test: dose response ELISA, antigen-Fc coated, HRP anti-human Fab
mouse VEGFR2-Fc [5] = biological target: T3, mouse VEGFR2-Fc; test: as above
human VEGFR2-Fc [6] = biological target: T2, human VEGFR2-Fc; test: SPR (Biacore), hVEGFR-Fc immobilized on CM5, antibody injected, 1:1 Langmuir
[7] = biological target: T4, mouse PDL1 expressed on B16-F10 cells (mouse, UniProt Q9EP73 19-290); test: flow cytometry on B16-F10 cells
T4 construct: whole, on cells; also called B16-F10 (mPDLl); cell expressed mouse PDL1
T4 sequence (Q9EP73 19-290): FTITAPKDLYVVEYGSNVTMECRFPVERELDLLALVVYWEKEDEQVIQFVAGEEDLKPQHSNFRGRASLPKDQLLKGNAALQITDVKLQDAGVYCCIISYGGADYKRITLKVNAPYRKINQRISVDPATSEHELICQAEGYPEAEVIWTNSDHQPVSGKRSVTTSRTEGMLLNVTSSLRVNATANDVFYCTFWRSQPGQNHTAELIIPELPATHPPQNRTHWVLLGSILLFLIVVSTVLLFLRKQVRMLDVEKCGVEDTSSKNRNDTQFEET

[8] = biological target: T5, human PDL1 expressed on MDA-MB-231 cells (human, UniProt Q9NZQ7 19-290); test: flow cytometry on MDA-MB-231 cells
T5 construct: whole, on cells; also called cell expressed human PDL1

human PDL1-Fc [9] = biological target: T6, human PDL1-Fc (human, UniProt Q9NZQ7 19-238); test: dose response ELISA, antigen-Fc coated, HRP anti-human Fab
T6 construct: also called hPDL1; hPDLl
T6 sequence (Q9NZQ7 19-238 limits assumed): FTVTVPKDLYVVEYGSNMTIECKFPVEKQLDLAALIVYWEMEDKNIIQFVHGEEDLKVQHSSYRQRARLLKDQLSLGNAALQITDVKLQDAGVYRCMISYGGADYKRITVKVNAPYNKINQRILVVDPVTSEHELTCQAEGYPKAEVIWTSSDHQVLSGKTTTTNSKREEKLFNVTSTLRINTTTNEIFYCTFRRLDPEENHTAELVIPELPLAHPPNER

mouse PDL1-Fc [10] = biological target: T7, mouse PDL1-Fc (mouse, UniProt Q9EP73 19-239, limits assumed); test: as above
T7 construct: also called mPDL1; mPDLl
T7 sequence (Q9EP73 19-239 limits assumed): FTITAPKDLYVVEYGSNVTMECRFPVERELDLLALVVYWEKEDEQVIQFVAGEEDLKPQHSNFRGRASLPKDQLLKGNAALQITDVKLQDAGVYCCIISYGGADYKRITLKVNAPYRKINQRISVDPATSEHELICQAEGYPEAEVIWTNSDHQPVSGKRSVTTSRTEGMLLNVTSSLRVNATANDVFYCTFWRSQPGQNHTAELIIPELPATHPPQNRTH

human PDL1-Fc [11] = biological target: T6, human PDL1-Fc; test: blocking ELISA, biotin hPDL1-Fc binding to immobilized hPD1
mouse PDL1-Fc [12] = biological target: T7, mouse PDL1-Fc; test: blocking ELISA, biotin mPDL1-Fc binding to immobilized mPD1
human PDL1-Fc [13] = biological target: T6, human PDL1-Fc; test: SPR (Biacore), hPDL1-Fc immobilized on CM5, antibody injected, 1:1 Langmuir
human VEGFR2-Fc [14] = biological target: T2, human VEGFR2-Fc; test: binding assay as in Example 2 (Figure 42)
human PDL1-Fc [15] = biological target: T6, human PDL1-Fc; test: binding assay as in Example 2 (Figure 42)

T2 sequence (P35968 20-764 limits assumed): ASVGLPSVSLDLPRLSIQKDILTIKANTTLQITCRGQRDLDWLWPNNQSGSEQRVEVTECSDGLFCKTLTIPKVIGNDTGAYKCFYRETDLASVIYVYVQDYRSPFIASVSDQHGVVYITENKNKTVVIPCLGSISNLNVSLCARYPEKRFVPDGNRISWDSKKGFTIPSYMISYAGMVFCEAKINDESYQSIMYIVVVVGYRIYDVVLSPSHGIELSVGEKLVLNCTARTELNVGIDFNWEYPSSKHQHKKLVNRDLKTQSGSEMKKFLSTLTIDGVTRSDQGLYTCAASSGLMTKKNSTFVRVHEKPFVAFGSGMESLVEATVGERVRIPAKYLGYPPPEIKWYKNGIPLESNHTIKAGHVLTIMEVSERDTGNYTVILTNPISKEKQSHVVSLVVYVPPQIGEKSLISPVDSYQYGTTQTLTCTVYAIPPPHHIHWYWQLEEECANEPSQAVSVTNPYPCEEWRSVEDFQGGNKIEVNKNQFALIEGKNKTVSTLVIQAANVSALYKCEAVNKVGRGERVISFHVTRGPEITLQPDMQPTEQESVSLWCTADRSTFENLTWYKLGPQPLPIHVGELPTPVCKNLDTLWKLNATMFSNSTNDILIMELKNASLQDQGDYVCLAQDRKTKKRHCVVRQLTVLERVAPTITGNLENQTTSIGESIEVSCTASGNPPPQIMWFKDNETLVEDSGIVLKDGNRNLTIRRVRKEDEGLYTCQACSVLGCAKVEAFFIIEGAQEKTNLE
T1 sequence (P35968 20-1356): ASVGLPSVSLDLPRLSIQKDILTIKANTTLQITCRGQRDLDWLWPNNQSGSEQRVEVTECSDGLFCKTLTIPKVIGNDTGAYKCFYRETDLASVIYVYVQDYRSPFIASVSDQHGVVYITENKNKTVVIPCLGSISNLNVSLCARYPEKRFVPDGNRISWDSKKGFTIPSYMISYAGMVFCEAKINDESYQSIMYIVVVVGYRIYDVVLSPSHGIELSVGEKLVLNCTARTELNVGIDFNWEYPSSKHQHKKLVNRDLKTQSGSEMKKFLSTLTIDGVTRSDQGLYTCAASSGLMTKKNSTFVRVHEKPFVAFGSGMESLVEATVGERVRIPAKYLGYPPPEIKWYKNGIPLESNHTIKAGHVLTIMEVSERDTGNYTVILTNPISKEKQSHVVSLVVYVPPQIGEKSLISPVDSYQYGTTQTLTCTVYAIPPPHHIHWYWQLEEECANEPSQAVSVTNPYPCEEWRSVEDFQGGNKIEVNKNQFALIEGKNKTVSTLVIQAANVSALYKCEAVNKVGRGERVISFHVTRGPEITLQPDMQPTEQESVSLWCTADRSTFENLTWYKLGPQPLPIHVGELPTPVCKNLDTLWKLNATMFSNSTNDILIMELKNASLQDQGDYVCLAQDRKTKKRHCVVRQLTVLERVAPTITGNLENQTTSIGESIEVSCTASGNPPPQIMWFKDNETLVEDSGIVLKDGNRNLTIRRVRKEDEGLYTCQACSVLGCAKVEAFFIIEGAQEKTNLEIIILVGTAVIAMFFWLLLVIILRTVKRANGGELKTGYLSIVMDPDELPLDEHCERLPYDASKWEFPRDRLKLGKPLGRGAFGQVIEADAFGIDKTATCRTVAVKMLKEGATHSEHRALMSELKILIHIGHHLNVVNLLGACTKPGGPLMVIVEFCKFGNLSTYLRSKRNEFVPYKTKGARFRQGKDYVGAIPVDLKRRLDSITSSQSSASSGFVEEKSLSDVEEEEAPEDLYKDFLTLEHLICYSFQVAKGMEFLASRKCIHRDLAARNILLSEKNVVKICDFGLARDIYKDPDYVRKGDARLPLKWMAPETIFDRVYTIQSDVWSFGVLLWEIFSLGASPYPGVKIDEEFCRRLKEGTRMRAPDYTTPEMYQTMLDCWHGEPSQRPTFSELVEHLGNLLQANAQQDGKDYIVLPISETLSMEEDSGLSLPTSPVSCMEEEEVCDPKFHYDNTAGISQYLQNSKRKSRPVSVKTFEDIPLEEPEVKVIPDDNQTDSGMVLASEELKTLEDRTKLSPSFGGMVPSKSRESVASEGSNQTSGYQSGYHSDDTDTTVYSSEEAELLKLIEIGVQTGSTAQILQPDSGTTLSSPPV

B1: B1C4A7 (antibody, human IgG1, kappa, V domains shown)
VH: EVQLLESGGGLVQPGGSLRLSCAASGFTFSWYVMGWVRQAPGKGLEWVSSIYPQGGATSYADSVKGRFTISRDNSKNTLYLQMNSLRAEDTAVYYCARGNYFDYWGQGTLVTVSS
VL: DIQMTQSPGTLSLSPGEGATLSCRASQSVSSNYFGWYQQKPGQAPRLLIYGASSRATGIPDRFSGSGSGTDFTLTISRLEPEDSAVYYCQQFDSLPLTFGGGTKVEIKR
notes: Parental mono-specific anti-VEGFR2 IgG1; also called anti-VEGFR2 antibody B1C4A7
B1 gave an EC50 [1] of 522 pM, an IC50 (human VEGFR2-Fc [2]) of 1720 pM and an IC50 (mouse VEGFR2-Fc [3]) of 973 pM. The EC50 (human VEGFR2-Fc [4]) was 107 pM, the EC50 (mouse VEGFR2-Fc [5]) was 466 pM and the Kd (human VEGFR2-Fc [6]) was 52 pM.

B2: BsAb (A7-A8)-LALA (bispecific antibody, human IgG1, kappa)
heavy: not shown
light: DIQMTQSPGTLSLSPGEGATLSCRASQSVSSNYFGWYQQKPGQAPRLLIYGASSRATGIPDRFSGSGSGTDFTLTISRLEPEDSAVYYCQQFDSLPLTFGGGTKVEIKRTVAAPSVFIFPPSDEQLKSGTASVVCLLNNFYPREAKVQWKVDNALQSGNSQESVTEQDSKDSTYSLSSTLTLSKADYEKHKVYACEVTHQGLSSPVTKSFNRGEC
notes: LALA version: leucines 234 and 235 of the IgG1 CH2 mutated to alanine; also called bi-specific antibody A7-A8
B2 was tested, and the EC50 [7] was 122 pM, the EC50 [1] was 533 pM and the EC50 [8] was 223 pM. The IC50 (human VEGFR2-Fc [2]) was 1290 pM, the IC50 (mouse VEGFR2-Fc [3]) was 801 pM and the EC50 (human VEGFR2-Fc [4]) was 128 pM. For the same binder, the EC50 (mouse VEGFR2-Fc [5]) was 598 pM, the EC50 (human PDL1-Fc [9]) was 79 pM and the EC50 (mouse PDL1-Fc [10]) was 137 pM. The IC50 (human PDL1-Fc [11]) was 2510 pM, the IC50 (mouse PDL1-Fc [12]) was 5590 pM and the Kd (human PDL1-Fc [13]) was ~1.2 pM. The Kd (human VEGFR2-Fc [6]) was ~47 pM.

B3: BsAb (A1-A8)-LALA (bispecific antibody, human IgG1, lambda)
heavy: not shown
light: QSVLTQPPSVSVSPGQTASITCSGEKLGDEYASWYQQKPGQSPVLVIYQDNKRPSGIPERFSGSNSGNTATLTISGTQAMDEADYYCQAWDSSTLLFGGGTKLTVLGQPKAAPSVTLFPPSSEELQANKATLVCLISDFYPGAVTVAWKADSSPVKAGVETTKPSKQSNNKYAASSYLSLTPEQWKSHRSYSCQVTHEGSTVEKTVAPTECS
notes: LALA version: leucines 234 and 235 of the IgG1 CH2 mutated to alanine; also called bi-specific antibody A1-A8; A18
B3 showed an EC50 [7] of 113 pM, an EC50 [1] of 779 pM and an EC50 [8] of 402 pM. The IC50 (human VEGFR2-Fc [2]) was 1190 pM, the EC50 (human VEGFR2-Fc [4]) was 128 pM and the EC50 (human PDL1-Fc [9]) was 88 pM. For the same binder, the EC50 (mouse PDL1-Fc [10]) was 160 pM, the IC50 (human PDL1-Fc [11]) was 2510 pM and the IC50 (mouse PDL1-Fc [12]) was 3200 pM. For the same binder, the Kd (human PDL1-Fc [13]) was ~3.2 pM and the Kd (human VEGFR2-Fc [6]) was ~200 pM.

B4: BsAb (A11-B1A1) (bispecific antibody, human IgG1, kappa, L234A L235A)
heavy: not shown
light: DIQMTQSPSSLSASVGDRVTITCRASQTVSKYFNWFQQKPGEAPKLLIYATSTLQSGVPSRFSGSGYGTEFTLTISSLQPEDFATYYCQQSYTTPWTFGQGTKVEIKRTVAAPSVFIFPPSDEQLKSGTASVVCLLNNFYPREAKVQWKVDNALQSGNSQESVTEQDSKDSTYSLSSTLTLSKADYEKHKVYACEVTHQGLSSPVTKSFNRGEC
B4: binds (human VEGFR2-Fc [14]); binds (human PDL1-Fc [15]).

B5: BsAb (A11-B1A1)_30 (bispecific antibody, human IgG1, kappa, L234A L235A)
heavy: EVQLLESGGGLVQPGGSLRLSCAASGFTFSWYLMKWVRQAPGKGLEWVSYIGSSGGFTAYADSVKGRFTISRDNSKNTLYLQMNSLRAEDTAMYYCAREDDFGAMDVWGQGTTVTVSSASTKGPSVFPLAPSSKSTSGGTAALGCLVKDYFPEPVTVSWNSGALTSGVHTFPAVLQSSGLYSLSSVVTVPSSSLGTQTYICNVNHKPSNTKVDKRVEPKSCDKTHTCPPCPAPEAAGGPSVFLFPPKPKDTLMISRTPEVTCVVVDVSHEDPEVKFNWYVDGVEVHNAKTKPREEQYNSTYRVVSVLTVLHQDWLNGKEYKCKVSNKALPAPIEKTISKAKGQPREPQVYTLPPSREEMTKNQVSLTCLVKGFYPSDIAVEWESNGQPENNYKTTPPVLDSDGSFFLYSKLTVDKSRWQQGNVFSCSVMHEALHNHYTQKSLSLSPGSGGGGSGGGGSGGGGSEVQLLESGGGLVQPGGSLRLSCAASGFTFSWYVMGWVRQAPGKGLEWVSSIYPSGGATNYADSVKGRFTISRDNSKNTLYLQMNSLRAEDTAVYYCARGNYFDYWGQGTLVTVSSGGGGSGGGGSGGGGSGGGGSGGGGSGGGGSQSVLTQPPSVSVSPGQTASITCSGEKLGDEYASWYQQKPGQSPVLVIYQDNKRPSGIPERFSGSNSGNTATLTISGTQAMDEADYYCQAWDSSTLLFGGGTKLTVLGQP
light: B4 light
B5: binds (human VEGFR2-Fc [14]); binds (human PDL1-Fc [15]).

B6: BsAb (A11-B1A1)_30cc (bispecific antibody, human IgG1, kappa, L234A L235A)
heavy: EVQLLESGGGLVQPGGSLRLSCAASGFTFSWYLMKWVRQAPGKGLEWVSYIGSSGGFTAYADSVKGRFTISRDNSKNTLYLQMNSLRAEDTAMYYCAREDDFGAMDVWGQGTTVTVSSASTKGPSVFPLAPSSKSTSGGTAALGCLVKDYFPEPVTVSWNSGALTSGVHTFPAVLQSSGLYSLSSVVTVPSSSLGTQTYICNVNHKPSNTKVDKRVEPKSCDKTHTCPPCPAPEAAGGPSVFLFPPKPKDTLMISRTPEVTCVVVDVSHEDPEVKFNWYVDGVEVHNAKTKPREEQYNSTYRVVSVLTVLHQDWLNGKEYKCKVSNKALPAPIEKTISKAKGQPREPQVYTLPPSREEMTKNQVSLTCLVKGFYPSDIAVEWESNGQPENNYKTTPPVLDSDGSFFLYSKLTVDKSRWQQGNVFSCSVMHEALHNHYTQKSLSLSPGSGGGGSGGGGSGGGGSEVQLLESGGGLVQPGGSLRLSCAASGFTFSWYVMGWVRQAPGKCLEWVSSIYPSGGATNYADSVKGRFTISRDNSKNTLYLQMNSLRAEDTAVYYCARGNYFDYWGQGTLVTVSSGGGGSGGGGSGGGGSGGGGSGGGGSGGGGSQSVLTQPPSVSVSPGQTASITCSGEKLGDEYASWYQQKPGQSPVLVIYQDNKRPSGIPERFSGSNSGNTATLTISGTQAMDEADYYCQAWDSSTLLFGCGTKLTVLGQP
light: B4 light
notes: Variant of BsAb (A11-B1A1), apparently with the 30GS linker and an added disulfide bond in the scFv; also called BsAb (Al l-BlAl)_30cc
B6: binds (human VEGFR2-Fc [14]); binds (human PDL1-Fc [15]).

B7: BsAb (D7A8-B1A1) (bispecific antibody, human IgG1, lambda, L234A L235A)
heavy: not shown
light: QSALTQPASVSGSPGQSITISCTGTSSDVGAYNYVSWYQQHPGKAPKLMIYDVSNRPSGVSNRFSGSKSGNTASLTISGLQAEDEADYYCSSYTSSSTRVFGTGTKVTVLGQPKAAPSVTLFPPSSEELQANKATLVCLISDFYPGAVTVAWKADSSPVKAGVETTKPSKQSNNKYAASSYLSLTPEQWKSHRSYSCQVTHEGSTVEKTVAPTECS
B7: binds (human VEGFR2-Fc [14]); binds (human PDL1-Fc [15]).

B8: BsAb (D7A8-B1A1)_30 (bispecific antibody, human IgG1, lambda, L234A L235A)
heavy: not shown
light: B7 light
notes: Variant of BsAb (D7A8-B1A1), apparently with the 30GS linker
B8: binds (human VEGFR2-Fc [14]); binds (human PDL1-Fc [15]).

B9: BsAb (D7A8-B1A1)_30cc (bispecific antibody, human IgG1, lambda, L234A L235A)
heavy: not shown
light: B7 light
notes: Variant of BsAb (D7A8-B1A1), apparently with the 30GS linker and an added disulfide bond in the scFv; also called BsAb (D7A8-BlAl)_30cc
B9: binds (human VEGFR2-Fc [14]); binds (human PDL1-Fc [15]).
